The source of these data is paper PMC1266349, “Nonnatural amino acid incorporation into the methionine 214 position of the metzincin Pseudomonas aeruginosa alkaline protease” (BMC Biochemistry, 2005).

The test system of this data set is N=C(N)NCCC[C@H](NC(=O)OCc1ccccc1)C(=O)N[C@@H](CCCNC(=N)N)C(=O)Nc1ccc([N+](=O)[O-])cc1. Kind of data set: purified protein. The following applies: 20 mM HEPES, 100 μg enzyme per assay; revised conditions, unlabelled recombinant protein.

Broadly, the Km is the substrate concentration at which the rate is half of its maximum. In general, kcat refers to the number of substrate molecules converted per active site and unit of time at saturation.

Turning to “AprA (alkaline protease from Pseudomonas aeruginosa), mature full-length (Pseudomonas aeruginosa PAO1)”, the Km was 15.4 ± 0.9 µM and the kcat turned out to be 0.0095 ± 0.00033 s⁻¹.
